# Columns and labels:
# [1] = target: T1, recombinant biotinylated human PAR2 extracellular domain (residues 1-75), N-terminal AviTag, C-terminal Flag … (human, UniProt P55085 26-75, biotin on the AviTag (enzymatic biotinylation)); assay: HTRF competition with Par0067 IgG, pH 6.0, scFv
# T1 construct: also called Bio-human-PAR2 ECD; human PAR2 ECD; not shown: N-terminal AviTag (Avidity LLC); C-terminal Flag and poly Histidine tags
# Protocol: (§1) 5 μl/well of the appropriate pH 4.44 nM Par0067 IgG solution was added to all wells of the relevant assay plate (pH 7.4 and pH 6.0).
# (§2) Test scFv Preparation/Addition: [0172] a) For parallel single point HTS of crude un-purified bacterial lysate scFv samples at both pH 7.4 and pH 6.0 samples were first pre-diluted to 40% of their neat concentration using either pH 7.4 or pH 6.0 assay buffer as appropriate. Subsequently 5 μl of 40% pre-diluted sample was then transferred into the appropriate assay (pH 7.4 or pH 6.0) in order to give a final assay sample concentration of 10.0% (in the 20 μl final assay volume). The parent Par0067 scFv was included in all HTS experiments as a control as were specific pH dependent antibodies as those became available (for benchmarking). […] Duplicate 11 point 1:3 serial dilutions then were prepared on 384 well polypropylene Greiner plates in each of the two assay buffers (pH 7.4 & 6.0). 5 μl per well of each serial dilution was transferred from the relevant pH scFv dilution plate to the corresponding assay plate (pH 7.4 and pH 6.0). 5 μl of the appropriate pH assay buffer was added to the total and non-specific wells. The parent Par0067 purified scFv was included in all multipoint dose response IC₅₀ experiments as a control as were specific pH dependent purified scFv as those became available (for benchmarking).
# (§3) For multipoint dose response curves % Specific Binding values were plotted versus test purified antibody concentration (scFv or IgG). IC₅₀ values were determined via a sigmoidal dose response inhibition variable slope curve fit (4 parameter logistic equation) using Graphpad Prism Software.
# [2] = target: T1, recombinant biotinylated human PAR2 …; assay: HTRF competition with Par0067 IgG, pH 7.4, scFv
# Protocol: as §1, §2, §3
# [3] = target: T1, recombinant biotinylated human PAR2 …; assay: HTRF competition with Par0067 IgG, scFv
# Protocol: as §1, §2, §3
# T1 sequence (P55085 26-75): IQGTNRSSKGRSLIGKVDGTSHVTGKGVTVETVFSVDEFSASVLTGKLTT
Binder,IC50 [1] [nM],IC50 [2] [nM],Fold IC50 (pH 6.0 v pH 7.4) [3] [fold],Fold IC50 pH 7.4 (Variant v Par0067) [3] [fold]
"PaB670078 scFv (scFv, V domains shown, purified scFv; also called ZZ1OZJ-G03) VH: EVQLLESGGGLVQPGGSLRLSCAASGFTFSSYAMNWVRQAPGKGLEWVSTISYSGSLISYADSVKGRFTISRDNSKNTLYLQMNSLRAEDTAVYYCARINNDPMDVWGQGTLVTVSS VL: SIELTQPPSVSVSPGQTASITCSGDNLGKKYVQWYQQKPGQSPVLVIYDDSNRPSGIPERFSGSNSGNTATLTISGTQAMDEADYYCHHWHGHPHTGEHNVFGGGTKLTVL",319,33.3,9.6,10.1
"PaB670089 scFv (scFv, V domains shown, purified scFv; also called ZZ1ODR-C05) VH: EVQLLESGGGLVQPGGSLRLSCAASGFTFSSYAMNWVRQAPGKGLEWVSTISYHGSHISHADHVHGRFTISRDNSKNTLYLQMNSLRAEDTAVYYCARINNDPMDVWGQGTLVTVSS VL: SIELTQPPSVSVSPGQTASITCSGDNLGKKYVQWYQQKPGQSPVLVIYDDSNRPSGIPERFSGSNSGNTATLTISGTQAMDEADYYCQTWDGNPTTGETNVFGGGTKLTVL",134,29.9,4.5,9.1
"PaB670087 scFv (scFv, V domains shown, purified scFv; also called ZZ1ODR-B05) VH: EVQLLESGGGLVQPGGSLRLSCAASGFTFSSYAMNWVRQAPGKGLEWVSTISYHGSHISYADHHKHRFTISRDNSKNTLYLQMNSLRAEDTAVYYCARINNDPMDVWGQGTLVTVSS VL: SIELTQPPSVSVSPGQTASITCSGDNLGKKYVQWYQQKPGQSPVLVIYDDSNRPSGIPERFSGSNSGNTATLTISGTQAMDEADYYCQTWDGNPTTGETNVFGGGTKLTVL",131,40.9,3.2,12.4
"PaB670085 scFv (scFv, V domains shown, purified scFv; also called ZZ1ODR-A02) VH: EVQLLESGGGLVQPGGSLRLSCAASGFTFSSYAMNWVRQAPGKGLEWVSTISYHGSHISYHHSHKGRFTISRDNSKNTLYLQMNSLRAEDTAVYYCARINNDPMDVWGQGTLVTVSS VL: SIELTQPPSVSVSPGQTASITCSGDNLGKKYVQWYQQKPGQSPVLVIYDDSNRPSGIPERFSGSNSGNTATLTISGTQAMDEADYYCQTWDGNPTTGETNVFGGGTKLTVL",155,48.1,3.2,14.6
"PaB670083 scFv (scFv, V domains shown, purified scFv; also called ZZ1OZB-H05) VH: EVQLLESGGGLVQPGGSLRLSCAASGFTFSSYAMNWVRQAPGKGLEWVSTIHHSGHLHSHADHVKGRFTISRDNSKNTLYLQMNSLRAEDTAVYYCARINNDPMDVWGQGTLVTVSS VL: SIELTQPPSVSVSPGQTASITCSGDNLGKKYVQWYQQKPGQSPVLVIYDDSNRPSGIPERFSGSNSGNTATLTISGTQAMDEADYYCQTWDGNPTTGETNVFGGGTKLTVL",152,45.2,3.4,13.7
"PaB670079 scFv (scFv, V domains shown, purified scFv; also called ZZ1OZJ-G05) VH: EVQLLESGGGLVQPGGSLRLSCAASGFTFSSYAMNWVRQAPGKGLEWVSTISYSGSLISYADSVKGRFTISRDNSKNTLYLQMNSLRAEDTAVYYCARINNDPMDVWGQGTLVTVSS VL: SIELTQPPSVSVSPGQTASITCSGDNLGKKYVQWYQQKPGQSPVLVIYDDSNRPSGIPERFSGSNSGNTATLTISGTQAMDEADYYCQHWDGHHTTGETNHFGGGTKLTVL",490,44.2,11.1,13.4
"PaB670092 scFv (scFv, V domains shown, purified scFv; also called ZZ1ODR-G11) VH: EVQLLESGGGLVQPGGSLRLSCAASGFTFSSYAMNWVRQAPGKGLEWVSTISYHGSHISYHDSHHGRFTISRDNSKNTLYLQMNSLRAEDTAVYYCARINNDPMDVWGQGTLVTVSS VL: SIELTQPPSVSVSPGQTASITCSGDNLGKKYVQWYQQKPGQSPVLVIYDDSNRPSGIPERFSGSNSGNTATLTISGTQAMDEADYYCQTWDGNPTTGETNVFGGGTKLTVL",194,41.1,4.7,12.5
"PaB670081 scFv (scFv, V domains shown, purified scFv; also called ZZ1OZA-C01) VH: EVQLLESGGGLVQPGGSLRLSCAASGFTFSSYAMNWVRQAPGKGLEWVSTISHSGHHISHHDSHHGRFTISRDNSKNTLYLQMNSLRAEDTAVYYCARINNDPMDVWGQGTLVTVSS VL: SIELTQPPSVSVSPGQTASITCSGDNLGKKYVQWYQQKPGQSPVLVIYDDSNRPSGIPERFSGSNSGNTATLTISGTQAMDEADYYCQTWDGNPTTGETNVFGGGTKLTVL",260,51.4,5.1,15.6
"PaB670080 scFv (scFv, V domains shown, purified scFv) VH: EVQLLESGGGLVQPGGSLRLSCAASGFTFSSYAMNWVRQAPGKGLEWVSTISYSGSLISYADSVKGRFTISRDNSKNTLYLQMNSLRAEDTAVYYCARINNDPMDVWGQGTLVTVSS VL: SIELTQPPSVSVSPGQTASITCSGDNLGKKYVQWYQQKPGQSPVLVIYDDSNRPSGIPERFSGSNSGNTATLTISGTQAMDEADYYCQTWDGHHHTGETNHFGGGTKLTVL",158,16.6,9.5,5
"PaB670084 scFv (scFv, V domains shown, purified scFv; also called ZZ1PXA-A05) VH: EVQLLESGGGLVQPGGSLRLSCAASGFTFSSYAMNWVRQAPGKGLEWVSTISHSGHLIHHADSHKGRFTISRDNSKNTLYLQMNSLRAEDTAVYYCARINNDPMDVWGQGTLVTVSS VL: SIELTQPPSVSVSPGQTASITCSGDNLGKKYVQWYQQKPGQSPVLVIYDDSNRPSGIPERFSGSNSGNTATLTISGTQAMDEADYYCQTWDGNPTTGETNVFGGGTKLTVL",283,54.5,5.2,16.5

# These reach a lower IC50 [1]. Values come first.
IC50 [1] [nM],IC50 [2] [nM],Fold IC50 (pH 6.0 v pH 7.4) [3] [fold],Fold IC50 pH 7.4 (Variant v Par0067) [3] [fold],Binder
115,29.8,3.8,9,"PaB670088 scFv (scFv, V domains shown, purified scFv; also called ZZ1ODR-B11) VH: EVQLLESGGGLVQPGGSLRLSCAASGFTFSSYAMNWVRQAPGKGLEWVSTISYSGHLIHYADHHHGRFTISRDNSKNTLYLQMNSLRAEDTAVYYCARINNDPMDVWGQGTLVTVSS VL: SIELTQPPSVSVSPGQTASITCSGDNLGKKYVQWYQQKPGQSPVLVIYDDSNRPSGIPERFSGSNSGNTATLTISGTQAMDEADYYCQTWDGNPTTGETNVFGGGTKLTVL"
98.9,25.2,3.9,7.6,"PaB670091 scFv (scFv, V domains shown, purified scFv; also called ZZ1ODR-G02) VH: EVQLLESGGGLVQPGGSLRLSCAASGFTFSSYAMNWVRQAPGKGLEWVSTISHSGHLIHHHHSVKGRFTISRDNSKNTLYLQMNSLRAEDTAVYYCARINNDPMDVWGQGTLVTVSS VL: SIELTQPPSVSVSPGQTASITCSGDNLGKKYVQWYQQKPGQSPVLVIYDDSNRPSGIPERFSGSNSGNTATLTISGTQAMDEADYYCQTWDGNPTTGETNVFGGGTKLTVL"
85.5,22.6,3.8,6.8,"PaB670090 scFv (scFv, V domains shown, purified scFv; also called ZZ1ODR-F02) VH: EVQLLESGGGLVQPGGSLRLSCAASGFTFSSYAMNWVRQAPGKGLEWVSTISYHGHHISHADHVKHRFTISRDNSKNTLYLQMNSLRAEDTAVYYCARINNDPMDVWGQGTLVTVSS VL: SIELTQPPSVSVSPGQTASITCSGDNLGKKYVQWYQQKPGQSPVLVIYDDSNRPSGIPERFSGSNSGNTATLTISGTQAMDEADYYCQTWDGNPTTGETNVFGGGTKLTVL"
77.9,25.4,3.1,7.7,"PaB670082 scFv (scFv, V domains shown, purified scFv; also called ZZ1OZA-D02) VH: EVQLLESGGGLVQPGGSLRLSCAASGFTFSSYAMNWVRQAPGKGLEWVSTISHSHSLISYAHSVHGRFTISRDNSKNTLYLQMNSLRAEDTAVYYCARINNDPMDVWGQGTLVTVSS VL: SIELTQPPSVSVSPGQTASITCSGDNLGKKYVQWYQQKPGQSPVLVIYDDSNRPSGIPERFSGSNSGNTATLTISGTQAMDEADYYCQTWDGNPTTGETNVFGGGTKLTVL"
58.7,18.6,3.2,5.6,"PaB670093 scFv (scFv, V domains shown, purified scFv; also called ZZ1ODR-H04) VH: EVQLLESGGGLVQPGGSLRLSCAASGFTFSSYAMNWVRQAPGKGLEWVSTISYHHHLISHADSVKGRFTISRDNSKNTLYLQMNSLRAEDTAVYYCARINNDPMDVWGQGTLVTVSS VL: SIELTQPPSVSVSPGQTASITCSGDNLGKKYVQWYQQKPGQSPVLVIYDDSNRPSGIPERFSGSNSGNTATLTISGTQAMDEADYYCQTWDGNPTTGETNVFGGGTKLTVL"

# From patent publication US20180305450A1 (AstraZeneca / MedImmune, published 2018)
